Assay results as given in PMC10212915, “An ancient metabolite damage-repair system sustains photosynthesis in plants” (Nature Communications, 2023).

B1: MBP-AtCbbYA (Arabidopsis thaliana) (protein)
chain: CSASSSLTTLPSALLFDCDGVLVDTEKDGHRISFNDTFKERDLNVTWDVDLYGELLKIGGGKERMTAYFNKVGWPEKAPKDEAERKEFIAGLHKQKTELFMVLIEKKLLPLRPGVAKLVDQALTNGVKVAVCSTSNEKAVSAIVSCLLGPERAEKIKIFAGDVVPKKKPDPAIYNLAAETLGVDPSKCVVVEDSAIGLAAAKAAGMTCIVTKSGYTADEDFENADAVFDCIGDPPEERFDLAFCGSLLRKQFVS
B2: MBP-AtCbbYB (Arabidopsis thaliana) (protein)
chain: SKSRVSSPVSALPLRSLEALIFDCDGVILESENLHRQAYNDAFSHFDVRCPPSSSESLDWSLEFYDKFQNLVGGGKPKMRWYFKENGWPTSTIFDSPPQNDDDRAKLIDTLQDWKTERYKEIIKSGSVEPRPGVIRLMDEAKAAGKKLAVCSAATKSSVILCLENLIDIERFQGLDCFLAGDDVKEKKPDPSIYITAAEKLGVSVKDCLVVEDSVIGLQAATKAGMSCVITYTSSTSDQNFNDAIAVYPDLSNVKLKDLETLLQTIVTAA

Key:
Assay in all cases: malachite green phosphate release assay
Type in all cases: biochemical, Arabidopsis thaliana
Conditions in all cases: MOPS-KOH pH 7.5, 100 mM KCl, 10 mM MgCl2, 25 °C
[1] = substrate: O=C(COP(=O)(O)O)[C@@H](O)[C@H](O)COP(=O)(O)O
Excerpt: (§1) malachite green phosphate release assay on MBP-AtCbbYA

[2] = substrate: O=C(COP(=O)(O)O)[C@H](O)[C@H](O)COP(=O)(O)O
Excerpt: as §1

[3] = substrate: O=C(COP(=O)(O)O)[C@@H](O)[C@H](O)COP(=O)(O)O; remark: listed apart in the source
Excerpt: (§2) malachite green phosphate release assay on MBP-AtCbbYB

[4] = substrate: O=C(COP(=O)(O)O)[C@H](O)[C@H](O)COP(=O)(O)O; remark: listed apart in the source
Excerpt: as §2

Protein	Km [1]	kcat [1]	kcat/Km [1]	Km [2]	kcat [2]	kcat/Km [2]	Km [3]	kcat [3]	kcat/Km [3]	Km [4]	kcat [4]	kcat/Km [4]
B1	40 ± 1 µM	2.13 ± 0.04 s⁻¹	53000 ± 2000 M⁻¹ s⁻¹	4310 ± 110 µM	0.043 ± 0.009 s⁻¹	10 ± 2 M⁻¹ s⁻¹						
B2							182 ± 30 µM	0.54 ± 0.05 s⁻¹	3000 M⁻¹ s⁻¹	4840 ± 360 µM	0.015 ± 0.002 s⁻¹	3.2 ± 0.4 M⁻¹ s⁻¹
